Measurements from the nanobody polyreactivity screen of Harvey et al. (2022).

assay: yeast display, Sf9 membrane polyspecificity reagent, FACS + sequencing; frameworks hold sequencing errors
Outline: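 Using colony PCR, genes from sorted yeast display clones were amplified, then sequenced on MiSeq at 2 × 250 and filtered by CDR length. The clones had been stained with 10% biotinylated, detergent-solubilized Sf9 membrane reagent for 1 hour at 4 °C and sorted by FACS into low and high (top ~1%) gates on anti-HA and streptavidin fluorescence. Polyreactivity labels come from the gate of origin.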

Sequence	polyreactivity (PSR sort gate)
QVQLVESGGGLVQAGGSLRLSCAASGIIFEGYAMGWYRQAPGKERELVATITSGGITYYADSVKGRFTISRDNAKNTVYLQMNSLKPEDTAVYYCAADNEDIGSEDSDYGYDYWGQGTQVTVSS	low polyreactivity
QVQLVESGGGLVQAGGSLRLSCAASGRIFAPYAMGWYRQAPGKEWQLVAAIRTSGGRTYYADSVKGRFTISRDNAKNTVYLQMNSLKPEDSAVYYCAPLAWSTGRTTTVYDYWGLGTQVTVSS	high polyreactivity
QVQLVESGGGLVQAGGSLRLSCAASGSIFVGYAMGWYRQAPGKERELVAAIRSGGSTKYADSVKGRFTISRDNAKNTVYLQMNSLKAEDTAVYYCNVEVHPYYWVDNFHRFPVLHNYWGQGTQVTVSS	low polyreactivity
QVQLVESGGGLVQAGGSLRLSCAASGSTFWFYAMGWYRQAHGKERELVAVISNSGSTYYADSVKGRFTISRDNAKNTVYLQMNSLKPEDTAVYYCNKDGGGDSYWYDYWGQGTQVTVSS	low polyreactivity
QVQLVGSGGGLVQAGGSLRLSCAASGLTFNWYAMGWYRQAPGKERELVASVSKRGGSTYYADSVKGRFTISRDNAKNNVYLQMNSLKPEDTAVYYCAASRYPSYDYWGQGTQVTVSS	high polyreactivity
QVQLVESGGGLVQAGGSLRVSCAASGGIFGWYAMGWSRQAPGKERELVATITWRGGRTYYADSVKGRCTISRDNAKNTVYLQLTSLKPESTAVYYCTAEWLWYDAGYRYTIRDSWGQGTQVTESS	low polyreactivity
QVQLVESGGGLVQAGGSLRLSCAASGFTSKGYAMGWYRQAPGKERELVATIRSRGGGTYYADSVKGRFTISRDNAKNTVYLQMNSLKPEDTAVYYCAAERKNKYDYWGQGTQVTVSS	high polyreactivity
QVQLVESGGGLVQAGGSLRLSCAASGSIFWGNAMGWYRQAPGKERELVAGISRGGSTYYADSVKGRFTISRDNAKNTVYLQMNSLKPEDTAVYYCNADSDPVTAGYDYWGQGTQVTVSS	low polyreactivity
QVQLVESGGGLVQAGGSLRLSCAASGRIFPPNAMGWYRQAPGKERELVAGITPSGDTTYYADSVKGRFTISRDNAKNTVYIQMNSLKPEDTAVYYCAKDEVYADDRSALFDYWGQGTQVTVSS	low polyreactivity
QVQLVESGGGLVQAGGRLRLSCAASGRTLSRYAMGWYRQAPGKERELVAAINNGGNTNYADSVKGRFTISRDNAKNTVYLQMNSLKPEDTAVYYCAVRWYPRYGSSYDYWGQGTQVTVSS	high polyreactivity
QVQLVESGGGLVQAGGSLRLSCAASGFIFETYAMGWYRQAPGKERELVAAISRGASTYYADSVKGRFTISRDNAKNTVSLQMNSLKQEDTGVYYCAAKRLSWHRYGYWGQGTQVTVSS	low polyreactivity
QVQLVESRGGLVQAGGSLRLSFAASGSIFTPYTMGWDRPAPGKERELVAAITGSAGSTYYADSVKGRFTISRDNAKNTVYLQMNSLKPEDTAVYYCAAAVWGVYQWYYYWGQGTQVTVSS	high polyreactivity
QVQLVESGGGLDQEGVRLRLSCAASGRTFRIYAMGLYRQAPGNERELVAAISSDASTSYADSVKGRFTISRDNPKNTVYFQMNSLKPEATAVYYSAADPGPYFDWGYDFWGQGTQVTVSS	low polyreactivity
QVQLVESGGGLVQAGGRLRLSCAASGFTFKKNAMGWYRQAPGKERELVAAIRSGTSTKYADSVKGRFTISRDNAKNTVYLQMNSLKPEDTAVYYCAAEEPEYLATWRNRRYDYWGQGTQVTVSS	low polyreactivity
QVQLVESGGGIVQAGGSLRLSCASSGLIFKFYAMGWYRQAPGKERELVASIRRSGDNTYYADSVKRRFTISRDNAKNTVYLQMKSLKPEDTAVYYCAAELLYDYVEYYYWGQGTQVTVAS	high polyreactivity
QDQLVESGGGLVQAGGSLRLSCAASGRIFDYNVMGWYRQAPGTEREFVADINGSGGGTNYADSVKGRFTISRDNAKNTVYFLMNSLKPEDTAVSYCNADSYEYHVPYYDYRYDYWGQGTQVTVSS	low polyreactivity
QVLLVESGGGLVQAGGSLRLSCAASGSILRTYAMGWYRQAPGKERELVAAITWSGGSTRYADSVKGRFTISRDNAKNTVYLQMNSLKPEDTAVYYCNARYRVYSYALYKYGYWGQGTQVTVSS	high polyreactivity
QDQLVESGGGLVQAGGSLSLICDASGRTFSTKFMGWYIQAAGKERQLVAAITTSSSRTYYADSVKGRFTISRDNANHTVYLLMNSLKPEDTAVYYCAARIHGSWSFDYWGQGTQVTLSS	low polyreactivity
QVQLVESGGGFVQSGGSLRLSCAASGITFRYYTMGWYRQPPRKERELDAVISWSGGSTYYADSVKGRFTISRDNAKNTVYLQRNSLKPEDTAVYYCAAVRRISRYDYWGQGTQVTVSS	high polyreactivity
QVQLVESGGGLVQAGGSLRLSCAASGSITYLYAMGSYRQAPGKERELLASITWSGGSTYYADSVKGRFTISRDNAKNTVYLQMNSLKPEDTAVYDCAALYQPFPWTWDGYYWGQGTQVTVSS	low polyreactivity

Sequence	polyreactivity (PSR sort gate)
QVQLVESGGGLVQAGGSLRLSCAASGSTFVRNVMGWYRQAPGKERELDAAITRSGDTTYYADSVKGRFTISRDNAKNTVYLQMNSLKPEDTAVYYCAKRTFVRRGSIYPIDDYWGQGTQVTVSS	low polyreactivity
HVQLVESGGGLVQAGGSLRLSCAASGSIYALYDLGRYRQAPGKERELVASITGSGGNTYYADSVKGRFTISRDNAKNTVYLQMNSLKPEDTAVYYCAADFRYAGYSYDYWGQGTQVSVSS	low polyreactivity
HVQLVESGGGLVQAGGSLRLSCAASGRTFGIYAMGWYRKAPGKERELVAAITGRGGSTHYADSVKGRFTISRDNAKNTVYLQMNSLKPEDTAVYYCAADYRYNRGITSNKDYDYWGQGTQVTVSS	low polyreactivity
QVQLVESGGGLVQAGGSLRLSCAASGRTFGSYAMGWYRQAPGKERELVAGISWSGGITYYADSVKGRFTISRDNAKNTVYLQMNSLKPEDTAVYYCAASPRRDENAGRVRLYYWGQGTQVTVSS	high polyreactivity
QVQLVESGGGLVQAGGSLRLSCAASGSTFSYYALGWYRQAPGKEREFVAAISRSGGRTYYADSVKGRFTFSRDNAKNTVYLQMNSLKPEDTAVYYCATVYYYDFSRTHPWPGDYWGQGTQVTVSS	high polyreactivity
QVQLVESGGGLVQAGGSLRLSCAASGTYYLYAMGWYRQAPRKERELVAAISGSGSTNYADSVKGRFTISRDNAKNTVYLQMNSLKPEDTAVYYCAAYQRYVSVTGARYEYDYWGQGTQVTVSS	low polyreactivity
QVQLVESGGGLVQAGGSLRLSCAASGFIFYYYAMGWYRQAPGKERELFAAISKSGGSTYYADSVKGRFTISRDHAKNTVYLEMNSLKPEDTAVYYCAGVVTTWPYYGFGYWGQGTQVTVSS	high polyreactivity
QVQLVESGGGLVQAGGSRSLSCAASGSIFLVNAMGWYRQAPGKERELVAAINSGGSTYYADSVKGRFTISRDNAKNTVYLQMNSLKPEDTAVYYCAADFWLKVWQDTDYDYDYWGQGTQVTVSS	low polyreactivity
QVQLVESGGGLVQAGGSLRLSCAASGSIFIDYAMGWYRQAPGKERELVATISNSGTSTYYADSVKGRFTISRDNAKNTVYLQMNSLKPEDTAVYYCAAEAWPYGDYYWGQGTQVTVSS	low polyreactivity
QVQLVESGGGLVQAGGSLRLSCAASGTTISAYDMGRYRQAPGKEREMVAAITWIGGNTYYADSVKGRFTISRDNAKNTVYLQMNSLKPEDTAVYYCAAEEVPYDRDMDYWGQGTKVTVSS	low polyreactivity
QVQLEESGGCLDQAAGSLRLTCADSGFIFLPNAMGWYRQAPGKERELVADITYDGGTTYYADSVKGRFTISRDNAKNTVYLQKNSLKPEDTAVYYCNAETYEFHRSRGDYDYWGQGTQVTVSS	low polyreactivity
QVQLVESGGGLVQAGGSLRLSCAASGSTFVPYAMGWYRQAPGKERELVAAISQSGGSTYYADSVKGRYTISRDNAKNTVYLQMTSLKPEYTAVYYCNVDQFRYPEYDYWGQGTQVTVSS	high polyreactivity
QVQLVESGGGLVQAGGSLRLSCAASGRIFDHYAMGWYRQAPGKERELVAAITRSGGITYYADSVKGRFTISRDNAKNTVYLQMNSLKPEDTAVYSCAALSYRYTDKFDYWGQGTQVTVSS	low polyreactivity
QVQLVESGGGLVQAGGSLRLSCAASGYTFVIYAMGWYRQAPGKERELVAAITTIGGRTYYADSVKGRFTISRDNAKNTVYLLMNSLKPEDTAVYYCAADIRSNRLYDGGYWGQGTQVTVSS	low polyreactivity
QVQLVESGGGLLQAGGSLRLSCAASGSIFRRNAMGWYRQAPGTERELVACISGGGSTYYADSVKGRFTKSRDNAKNNVYLQLNSLNPEDTAVYYCATDKHYRWAVFDYWGQGTQVTVSS	low polyreactivity
QVQLVESGGGLVQAGGSLRLSCAASGRTSVNYAMGWYREAPGKERELVASITYSDGRTYYADSVKGRFTISRDNAKNTVYLQMNSLKPEDTAVYYCAARGYSYRGWRMDYWGQGTQVTVSS	high polyreactivity
QVQLVESGGGLVQAGGSLRLSCAASGSIFFKNVMGWYRQAPGKERELVAAITWSGGSTYYADSVKGRFTISRDNAKNTVYLQMNSLKPEDTAVYYCNARRSKGMYYWGQGTQVTVSS	high polyreactivity
QVQLVESGGGIVQAGGSLRLSCAASGSTFTWYAMGLYRQAPGKERELVADISYGGGSTYYADSVKGRFTISRDNSKNTVYLQMNSLKPEDTAVYYCTALGAKGYVKGFDYWGQGTQVTVSS	low polyreactivity
QVQLVESGGGLVQAGGSLRLSCAASVRTFSYYAMGWYRQAPGKERELVASISGGGRTNYADSVKGRFTISRDNAKKTVYLQMNSLKPEDTAVYYCAARYQITRQYKRGYWGQGNQVTVSS	high polyreactivity
QVQLVESGGGLVQAGGSLRLSCAASGRIFDRNTMGWYRQAPGKEREFVAAISGSGGRTYYADSVKGRFTISRDNAKNTVYLQMNSLKPEDTAVYYCAAYYSRQYVGYGYWGQGTQVTVSS	high polyreactivity
